Data on one molecule can be found in PMC12499412, “Engineering DNA Origami Captors for TGFβ1 Sequestration to Enhance Tumor Immune Modulation and Therapy”.

The target of one data set is IFN-γ (human, UniProt P01579 24-166). Put plainly: MST; aptamer:protein 1:50; MST: 30 nM Cy5-a'-Apt final with 45 pM (4.5 pM in Fig S3 legend) to 1.5 uM protein, 37 °C, 2 h; specificity MST 5 nM aptamer, 0.25 uM protein; buffer, salt and. Particulars: protein: commercial; chain copies: 2; label: 5'-Cy5; annealed 95 °C 5 min, 4 °C 30 min.
The target of a further data set is TGFβ1 (active, mature) (human, UniProt P01137 279-390). Put plainly: MST; 37 °C, 2 h; MST: 30 nM Cy5-a'-Apt final with 45 pM (4.5 pM in Fig S3 legend) to 1.5 uM protein, 37 °C, 2 h; specificity MST 5 nM aptamer, 0.25 uM protein; buffer, salt and. The note with it: protein: commercial; chain copies: 2; label: 5'-Cy5; annealed 95 °C 5 min, 4 °C 30 min.
TGFβ1 (active, mature), sequence (P01137 279-390): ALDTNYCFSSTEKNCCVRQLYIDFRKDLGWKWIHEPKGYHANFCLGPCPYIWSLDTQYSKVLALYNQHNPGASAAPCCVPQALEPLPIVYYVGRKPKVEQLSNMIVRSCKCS

IFN-γ, sequence (P01579 24-166): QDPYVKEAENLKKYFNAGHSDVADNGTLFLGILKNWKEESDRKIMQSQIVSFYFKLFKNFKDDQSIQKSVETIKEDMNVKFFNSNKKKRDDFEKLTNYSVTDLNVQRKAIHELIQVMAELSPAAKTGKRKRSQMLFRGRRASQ

B1: Cy5-a'-Apt (ssDNA)
DNA: TCGCTCGGCTTCACGAGATTCGTGTCGTTGTGTCCTGTACCCGCCTTGACCAGTCACTCTAGAGCATCCGGACTGTAGATGGAGTGTGGTGTGAAG
modifications: phosphorothioates at A and C bases (positions marked * in Table S3)
Regarding B1, the binding result with IFN-γ is “no binding”. In the data set with TGFβ1 (active, mature), the Kd amounted to 28 nM.

By Kd is commonly meant a measure of binding affinity in units of concentration.
